Data: patent publication US20120107329

biological target: recombinant human zonulin/pre-HP2 with a 6×His tag at the C-terminus, from baculovirus-infected Sf9 cells (UniProt P00738)
Sequence (P00738 19-406, tags left off): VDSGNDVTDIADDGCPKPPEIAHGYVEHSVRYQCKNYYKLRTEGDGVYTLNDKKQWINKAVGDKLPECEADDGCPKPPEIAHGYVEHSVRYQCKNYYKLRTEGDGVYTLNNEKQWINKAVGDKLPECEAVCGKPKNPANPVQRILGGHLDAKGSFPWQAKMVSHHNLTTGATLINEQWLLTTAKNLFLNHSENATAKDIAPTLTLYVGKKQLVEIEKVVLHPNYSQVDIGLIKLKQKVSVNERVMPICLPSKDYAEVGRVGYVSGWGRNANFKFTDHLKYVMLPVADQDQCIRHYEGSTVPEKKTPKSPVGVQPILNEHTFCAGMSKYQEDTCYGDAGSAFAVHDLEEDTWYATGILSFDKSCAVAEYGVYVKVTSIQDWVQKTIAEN

| Substance | proteolytic cleavage, SDS-PAGE |
| --- | --- |
| matriptase | Matriptase, urokinase, thrombin, and plasma kallikrein did not cleave pre-HP2 |
| plasma kallikrein | Matriptase, urokinase, thrombin, and plasma kallikrein did not cleave pre-HP2 |
| plasmin | plasmin caused complete degradation of the protein |
| thrombin | Matriptase, urokinase, thrombin, and plasma kallikrein did not cleave pre-HP2 |
| trypsin (intestinal serine protease; trypsin-agarose beads, Sigma T-1763) | treatment with the intestinal serine protease trypsin led to the appearance of two major bands that migrated with molecular weights compatible with the a2 and b subunits of zonulin |
| urokinase | Matriptase, urokinase, thrombin, and plasma kallikrein did not cleave pre-HP2 |
